# T1: H11 peptide FLVMFLSG (SEQ. ID. NO.: 1) (not fully specified)
# T1 chain: FLVMFLSG
# B1: streptococcal pyogenix exotoxin B (SpeB) (protein)
# chain: QPVVKSLLDSKGIHYNQGNPYNLLTPVIEKVKPGEQSFVGQHAATGCVATATAQIMKYHNYPNKGLKDYTYTLSSNNPYFNHPKNLFAAISTRQYNWNNILPTYSGRESNVQKMAISELMADVGISVDMDYGPSSGSAGSSRVQRALKENFGYNQSVHQINRGDFSKQDWEAQIDKELSQNQPVYYQGVGKVGGHAFVIDGADGRNFYHVNWGWGGVSDGFFRLDALNPSALGTGGGAGGFNGYQSAVVGIKP
# Biological target: T1, H11 peptide FLVMFLSG (SEQ. ID. NO.: 1)
protein,measurement,value
B1,"proteolytic activity in a microplate assay (rate of color development, mOD/min); lower limit of detection",The lower limit of detection was 100 pg of purified SpeB

# Source: US20140220589
